One molecule from paper PMC7035229 (Acta Neuropathologica, 2019) can be followed below.

For experiment [1], the target named is T1, soluble aggregates of tau (STAs) (human, UniProt P10636-8 1-441).
T1 construct: also called soluble Tau aggregates; SPAs (as a member of the group)
The experiment can be described thus: ELISA. To be noted: both partners purified.

For experiment [2], the target named is T2, soluble aggregates of Aβ_(1–42) (SBAs) (human, UniProt P05067 672-713).
T2 construct: also called soluble Aβ aggregates; SPAs (as a member of the group)
The experiment can be described thus: ELISA. As to conditions: both partners purified. Background: In an ELISA, binding on a coated surface is turned into a signal by an enzyme label.

T1 sequence (P10636 other isoform, or with tags, fused parts or gaps): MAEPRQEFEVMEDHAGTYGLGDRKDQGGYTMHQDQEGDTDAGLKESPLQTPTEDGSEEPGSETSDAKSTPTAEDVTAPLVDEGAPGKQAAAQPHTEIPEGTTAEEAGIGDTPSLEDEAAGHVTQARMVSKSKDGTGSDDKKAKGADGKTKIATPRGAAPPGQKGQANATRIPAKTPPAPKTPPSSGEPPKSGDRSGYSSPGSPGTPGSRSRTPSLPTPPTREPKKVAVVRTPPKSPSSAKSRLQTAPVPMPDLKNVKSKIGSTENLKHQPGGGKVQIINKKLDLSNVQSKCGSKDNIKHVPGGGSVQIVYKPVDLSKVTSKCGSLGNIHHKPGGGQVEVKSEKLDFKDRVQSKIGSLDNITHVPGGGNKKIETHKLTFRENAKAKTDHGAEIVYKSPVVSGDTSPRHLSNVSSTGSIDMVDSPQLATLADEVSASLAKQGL

B1: recombinant murine prion protein PrP_(23–231) (domain or fragment)
chain: not shown
notes: also called full-length PrP
As to B1, the binding result in experiment [1] and in experiment [2] was “binds” throughout.
